The target of this experiment is ErlA. Put plainly: SEC. On the technique in general: Size exclusion chromatography separates by hydrodynamic size, large species first.

Consider ErlB (natural protein), for which the stoichiometry N (ErlB per ErlA (4:4)) stood at 1.
